In publication PMC4155686, “Oleoyl Coenzyme A Regulates Interaction of Transcriptional Regulator RaaS (Rv1219c) with DNA in Mycobacteria*” (The Journal of Biological Chemistry, 2014):
Where a chain is given by its changes, count along the chain named. In names and notes the source's numbering stands.

T1: RaaS R140A (Mycobacterium tuberculosis, UniProt O86312 1-212, R140A)
T1 sequence: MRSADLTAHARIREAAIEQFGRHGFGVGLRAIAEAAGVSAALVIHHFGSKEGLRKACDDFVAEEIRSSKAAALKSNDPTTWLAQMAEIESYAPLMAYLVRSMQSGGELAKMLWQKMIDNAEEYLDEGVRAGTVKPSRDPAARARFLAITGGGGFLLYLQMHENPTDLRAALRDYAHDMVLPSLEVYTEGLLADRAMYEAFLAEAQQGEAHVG

T2: RaaS R144A (Mycobacterium tuberculosis, UniProt O86312 1-212, R144A)
T2 sequence: T1 sequence with A140R, R144A

T3: RaaS Y174A (Mycobacterium tuberculosis, UniProt O86312 1-212, Y174A)
T3 sequence: T1 sequence with A140R, Y174A

B1: RaaS (Rv1219c) R144A mutant (natural protein)
chain: T1 sequence with A140R, R144A
B2: RaaS (Rv1219c) Y174A mutant (natural protein)
chain: T1 sequence with A140R, Y174A
B3: Pr14F/Pr14R (ATTO 647N) (dsDNA)
DNA 1: GGGATGAACGTACGTTTAATATCCTGAACATGCGTTCAG
DNA 2: GGGCTGAACGCATGTTCAGGATATTAAACGTACGTTCAT

Experiments:
[1] = molecular target: the molecule itself; test: small-angle X-ray scattering; protein alone in solution at 1 and 3 mg/ml, data extrapolated to infinite dilution; apparent molecular mass from I(0)
RaaS R140A = molecular target: T1, RaaS R140A; test: fluorescence anisotropy; 4 nM DNA; conditions: protein: recombinant; chain copies: 2
RaaS R144A = molecular target: T2, RaaS R144A; test: fluorescence anisotropy; 4 nM DNA; FA: 50 mM Tris-HCl pH 8.5, 150 mM NaCl, temperature not stated; EMSA: 50 mM Tris-HCl pH 8.0, 1 mM EDTA, 50 mM NaCl, 4% glycerol, sheared salmon sperm DNA (printed as 1 g per reaction), 10 min, room temperature; conditions: protein: recombinant; chain copies: 2
RaaS Y174A = molecular target: T3, RaaS Y174A; test: as above; conditions: protein: recombinant; chain copies: 2

| Binder | stoichiometry N [1] | Kd (RaaS R140A) [nM] | Kd (RaaS R144A) [nM] | Kd (RaaS Y174A) [nM] |
| --- | --- | --- | --- | --- |
| B1 | 2 | – | – | – |
| B2 | 2 | – | – | – |
| B3 | – | 654 ± 300 | 129 ± 70 | 611 ± 120 |
